For orientation: Kd means the free concentration of one partner at which half of the binding sites on the other are occupied at equilibrium, for simple one-to-one binding.

One substance from article PMC4012616 can be followed below.

What all share (assay): MST
Assay [1] has as its target H3K9me2 MLA (Methyl Lysine Analog) histone H3 (UniProt P84233).
The target in assay [2] is H3K9me1 MLA (Methyl Lysine Analog) histone H3 (UniProt P84233).
Assay [3] deals with H3K9me3 MLA (Methyl Lysine Analog) histone H3 (UniProt P84233).

As to “EAP-1 chromodomain fused to GST (EAP-1chromo) (domain or fragment)”, the Kd in assay [1] came out at 2050 nM; in assay [2], 6140 nM; in assay [3], 157 nM.
